Bridge positions count the residues as written; N and C are the ends. Square brackets hold non-standard residues; d marks the D form. Ends that are not written are not given here. I, II: the chains in the order shown. 1Nal = N[C@@H](Cc1cccc2ccccc12)C(=O)O; PEG = not defined here
T1: human erythropoietin receptor on Ba/F3-huEPOR cells (human, UniProt P19235 25-508)
T1 sequence (looked up): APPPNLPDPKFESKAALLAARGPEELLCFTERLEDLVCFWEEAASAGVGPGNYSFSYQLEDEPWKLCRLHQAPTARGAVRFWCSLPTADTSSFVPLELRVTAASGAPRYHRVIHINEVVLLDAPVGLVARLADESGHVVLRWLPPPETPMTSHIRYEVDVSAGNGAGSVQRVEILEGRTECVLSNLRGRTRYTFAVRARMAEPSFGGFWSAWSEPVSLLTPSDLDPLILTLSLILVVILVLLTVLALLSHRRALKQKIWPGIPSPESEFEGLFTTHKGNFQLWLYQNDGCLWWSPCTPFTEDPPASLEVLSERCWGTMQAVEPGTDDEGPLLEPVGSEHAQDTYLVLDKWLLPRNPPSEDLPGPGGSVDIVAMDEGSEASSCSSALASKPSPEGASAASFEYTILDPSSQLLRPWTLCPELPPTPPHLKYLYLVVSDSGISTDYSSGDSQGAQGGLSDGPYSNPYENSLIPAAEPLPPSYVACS


molecular target: T1, human erythropoietin receptor on …; test: cell-based or functional assay

| Binder | EC50 (nM), bioassay (Ba/F3-huEPOR cell proliferation) |
| --- | --- |
| GGTYSCHFGPLT[1Nal]VCRPQGG (cysteine pairing not given here; also: dimer: two identical chains joined at C-termini through a lysine amide linker) | 6 nM |
| Peptide dimer of Example 10, Code No. 17644 (R1 = R2 = GGTYSCHFGPLTBVCRPQGG, both N-termini acetylated, n1 = 1, n2 = 0, lysine linker) (cysteine pairing not given here; also: dimer: C-termini joined through lysine linker, one chain (R1) via a beta-alanine, the other (R2) directly) peptide 1: Ac-GGTYSCHFGPLT[1Nal]VCRPQGG peptide 2: Ac-GGTYSCHFGPLT[1Nal]VCRPQGG | 5 nM |
| {PEG}-GGTYSCHFGPLT[1Nal]VCRPQGG (not fully specified (C-terminus); cysteine pairing not given here; reading uncertain; also: homodimer: C-termini joined via beta-alanine to a lysine linker, PEG size not given here) | 0.4 nM |
| Ac-GGTYSCHFGPLT[1Nal]VCRPQGGK (not fully specified; also: cysteine state not given here) | 2 nM |
| Peptide dimer of Example 2, Code No. 20528 (R1 = R2 = GGTYSCHFGPLTBVCRPQGG, n1 = 1, n2 = 0, lysine linker, free cysteine thiols) (cysteine pairing not given here; also: dimer: C-termini joined through lysine linker, one chain (R1) via a beta-alanine, the other (R2) directly) peptide 1: GGTYSCHFGPLT[1Nal]VCRPQGG peptide 2: GGTYSCHFGPLT[1Nal]VCRPQGG | 6 nM |
| GGTYSCHFGPLT[1Nal]VCRPQGG (not fully specified (C-terminus); cysteine pairing not given here; also: homodimer: C-termini joined via beta-alanine to a lysine linker) | 5 nM |
| GGTYSCHFGPLT[1Nal]VCRPQ (cysteine pairing not given here; also: homodimer: C-termini joined through a lysine linker) | 50 nM |
| GTYSCHFGPLT[1Nal]VCRPQ (cysteine pairing not given here; also: dimer: C-termini of both chains bound to lysine linker) | 100 nM |
| GGTYSCHFGPLT[1Nal]VCRPQGG (disulfide 6-15; also: dimer: C-termini of both chains bound to lysine (amide) linker) | 0.5 nM |
| Peptide dimer of Example 7, Code No. 17286 (R1 = R2 = GGTYSCHFGPLTBVCRPQGG, n1 = 1, n2 = 0, lysine linker, intramolecular disulfide in each chain) (disulfide I:6-I:15, II:6-II:15; not fully specified (C-terminus); also: dimer: C-termini joined by lysine linker, R1 through βAla, R2 directly, which chain is R1 not given here) peptide 1: GGTYSCHFGPLT[1Nal]VCRPQGG peptide 2: GGTYSCHFGPLT[1Nal]VCRPQGG | 0.4 nM |
| GGTYSCHFGPLT[1Nal]VCRPQGG (disulfide 6-15; not fully specified (C-terminus); also: dimer: each chain joined through βAla to lysine linker) | 0.3 nM |

molecular target: T1, human erythropoietin receptor on …; test: cell-based or functional assay; remark: another data set of the same source

| Binder | EC50, bioassay (Ba/F3-huEPOR cell proliferation) |
| --- | --- |
| GGTYSCHFGPLT[1Nal]VCRPQGG (cysteine pairing not given here) [monomeric compound having the sequence GGTYSCHFGPLTBVCRPQGG (SEQ ID NO: 7)] | 200 nM |

Source: patent US20060270831A1 (AFFYMAX, published 2006)
